According to PMC4817975 (PLoS ONE, 2016):
Like-named read-outs stand apart in the source and are kept apart here.

What was measured:
[1] = biological target: T1, Human kappa opioid receptor (KOR) (Homo sapiens, UniProt P41145); test: Time-resolved SPA stability assay of high-affinity [3H]-DPN binding; details: for τ1, exponential time constant: exponential decay fit; for N1, initial active receptor population: exponential decay fit (single for DDM, double for Nanodiscs)
T1 construct: made in house; host or cells: Pichia pastoris
Method: All procedures were performed on ice or at 4°C until assay counting was initiated at room temperature (23°C). Time-resolved stability assay with detergent-extracted MPs was carried out directly after solubilization in binding buffer I (20 mM Tris-HCl, pH 7.4, 500 mM NaCl, 5% glycerol, 1 mM PMSF, 0.1 mM TCEP, 0.4% BSA). Solubilized proteins were diluted in the assay resulting in a final concentration of 0.1% DDM in the assay buffer. Stability assays performed with KOR reconstituted in Nanodiscs were done in binding buffer II (20 mM Tris-HCl pH 7.4, 100 mM NaCl pH 7.4, 0.4% BSA). KOR/Nanodisc samples were added at quantities corresponding to approximately 30 fmol/well. Samples were mixed with 0.5 mg/well yttrium silicate (YSi) streptavidin coated SPA beads (Perkin Elmer) in binding buffer and a final concentrations of 10 nM [^3H]-DPN (42.3 Ci/mmol, Perkin Elmer) in a total volume of 200 μl. In parallel, the non-specific binding was measured including 50 μM naloxone in the assay. All measurements were performed in triplicates in a white-wall clear-bottom 96-well plate (Wallac). The assay was gently shaken on a vibrating platform at 4°C for 1.5 hours to equilibrate ligand binding and immobilization of receptors on the SPA beads. After incubation the assay was counted with a liquid scintillation counter (Wallac Microbeta TriLux 1450, SPA cpm mode) repeatedly with 17 min between measurements at room temperature. As a control, the same assay conditions as described above were performed at RT and bound and free radioligands were separated at specific time points on Sephadex G-50 gravity-flow columns (GE Healthcare) equilibrated in binding buffer. After applying 50 μl of samples, columns were centrifuged for 2 min at 1000 x g. Separated samples were mixed with scintillation liquid and incubated for 1 hour at RT, before counting on a liquid scintillation counter. As data analysis, specific binding was normalized to the initial binding at time zero, corresponding to initiation of assay counting at RT. The half-life of high-affinity ligand binding was calculated from fitting to single or double exponential decay functions in Igor Pro 6.1.

[2] = biological target: T1, Human kappa opioid receptor (KOR); test: Radioligand filter binding assay (saturation), KOR in P. pastoris membranes; details: one-site model, read-out: KD, P.Pastoris membrane
Method: Specific ligand binding to KOR in P. pastoris membranes was measured by radioligand filter binding assay. Isolated P. pastoris membranes were diluted in binding buffer (50 mM Tris-HCl pH 7.4, 0.5 M NaCl, 1mg/ml BSA) and mixed in triplicates with radioligand [^3H]-diprenorpine (DPN, 42.3 Ci/mmol, Perkin Elmer) in concentrations varying from 0.08 to 10 nM in a 96 well plate (MultiScreen HTS-FC 1.2/0.65 μm glass fiber filter), which was pre-wetted in washing buffer (50 mM Tris-HCl buffer, pH 7.4). Non-specific binding was measured in parallel by including 50 μM naloxone. For each binding experiment, membranes corresponding to 3–5 μg/well were used keeping the ratio of bound radioligand <10% of the total added radioligand. The assay mixture was incubated for 2 h at room temperature. To separate bound from free ligands, the plate was rapidly filtrated and washed four times with 100 μl ice-cold washing buffer. Scintillation liquid (Ultima Gold XR, Perkin Elmer) was added to the wells and the assay was counted by a liquid scintillation counter (Wallac Microbeta TriLux 1450). Specific binding was calculated and KD was measured from saturation curves fitted to a one-site binding model using Igor Pro 6.1.

[3] = biological target: T2, Human kappa opioid receptor (KOR) reconstituted in Nanodiscs (Homo sapiens, UniProt P41145); details: SPA saturation binding, one-site model
T2 construct: made in house; host or cells: Pichia pastoris (KOR)
Method: In parallel non-specific binding was measured in the presence of 50 μM naloxone. […] Therefore, saturation and inhibition binding assays were performed with reduced SPA beads/well; 0.25 mg/well of streptavidin-coated SPA YSI beads. […] Ki was measured from the IC50 value.

KOR = biological target: KOR; design: method as in PMID 22437504, PMID 15956349; details: literature value; cited from earlier work
[4] = 10 nM [3H]-DPN, 23°C, double exponential fit

T1 sequence (P41145 whole entry): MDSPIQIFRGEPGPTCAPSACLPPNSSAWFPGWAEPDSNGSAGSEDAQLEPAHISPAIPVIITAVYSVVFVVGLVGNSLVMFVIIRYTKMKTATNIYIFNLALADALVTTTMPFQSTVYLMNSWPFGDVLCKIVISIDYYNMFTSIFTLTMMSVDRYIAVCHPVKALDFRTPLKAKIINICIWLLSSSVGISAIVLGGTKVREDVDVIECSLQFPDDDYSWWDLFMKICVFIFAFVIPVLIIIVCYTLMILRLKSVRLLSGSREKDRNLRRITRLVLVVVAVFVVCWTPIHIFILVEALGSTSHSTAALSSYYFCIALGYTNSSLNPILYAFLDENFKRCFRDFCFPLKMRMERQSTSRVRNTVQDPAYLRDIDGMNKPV
T2 sequence (P41145 whole entry): as above

Substance: KOR in DDM micelles: human kappa opioid receptor solubilized in DDM/CHS, 0.1%/0.02% in the assay
- τ1, exponential time constant ([1]; 10 nM [3H]-DPN, 23°C): 0.4 ± 0.01 h
- N1, initial active receptor population ([1]; 10 nM [3H]-DPN, 23°C): 97.4 ± 1.5%
- time to complete loss of ligand binding activity ([1]; room temperature (23°C), 10 nM [3H]-DPN): ≤ 100 min

Substance: KOR in Nanodiscs: human kappa opioid receptor reconstituted in MSP1E3D1 Nanodiscs with POPC:POPG 3:2
- N2, initial active receptor population (slow component) [1, 4]: 68.9 ± 0.7%
- τ2, exponential time constant [1, 4]: 36.8 ± 1.6 h
- N2, initial active receptor population (slow component) ([1]; 10 nM [3H]-DPN, 23°C, double exponential fit, listed as KOR reconstituted in Nanodiscs): 68.9%
- τ1, exponential time constant ([1]; 10 nM [3H]-DPN, 23°C): 1.2 ± 0.1 h
- N1, initial active receptor population ([1]; 10 nM [3H]-DPN, 23°C): 29.4 ± 0.8%
- ligand binding relative to the initial activity after 100 minutes ([1]; after counting for 100 minutes at room temperature, n = 5): 73.5 ± 2.5%
- stability improvement (Taverage in Nanodiscs vs half-life in DDM micelles) ([1]; from fitted curves): approximately 70 fold

Substance: diprenorpine [[3H]-DPN]
- Kd ([2]; listed as [^3H]-DPN): 0.94 ± 0.14 nM
- Kd [2]: 0.9 ± 0.1 nM
- Kd [3]: 0.8 ± 0.2 nM
- Kd ([3]; listed as [^3H]-DPN): 0.84 ± 0.15 nM
- Kd (KOR): 0.8 nM
